Results published in patent CN117964771A (ZHIZE TONGKANG GUANGZHOU BIOTECHNOLOGY CO LTD, dated 2024).

Molecular target: T1, 人基质金属蛋白酶7(hMMP7)重组蛋白 (human, UniProt P09237 18-267, limits assumed)
T1 construct: Recombinant protein made according to UniProt P09237; also called MMP7抗原; MMP7蛋白
T1 sequence (looked up): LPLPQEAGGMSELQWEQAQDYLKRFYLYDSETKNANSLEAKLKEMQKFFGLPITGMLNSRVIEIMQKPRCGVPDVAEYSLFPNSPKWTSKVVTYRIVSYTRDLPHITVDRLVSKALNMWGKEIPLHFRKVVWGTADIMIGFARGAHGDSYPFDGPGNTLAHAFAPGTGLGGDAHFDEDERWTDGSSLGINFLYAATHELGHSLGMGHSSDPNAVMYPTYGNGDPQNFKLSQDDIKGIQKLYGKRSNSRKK
Assay: SPR, labelled MMP7 immobilised on chip, antibody as analyte (100 nM, 2-fold dilutions), 1:1 Langmuir model

B1: MMP7单克隆抗体M4 (antibody, mouse IgG1, kappa, V domains shown)
VH: QVQLQQSGAELMKPGASVKLSCKASGYTFTSYYMYWVKQRPGQGLEWIGEINPSNADTEFNEKFKSKATLTVDKSSSTAYMQLSSLTSEDSAVYYCTRWPLYGAMDYWGQGTSVTVSS
VL: DVQITQSPSYLAASPGETITINCRASKSISKYLAWYQEKPGKTNKLLIYSGHWLQSGIPSRFSGSGSGSDFTLTISSLEPEDFAMYYCQQHFEYPWTFGAGTKLELKR
For B1, the Kd was < 1 nM.
